Biological target: T1, PfGARP aa 443-459 (…) (Plasmodium falciparum)
T1 construct: Stood on the microarray as overlapping 15-mer peptides, not as one 17-mer
Experiment: microarray of overlapping 15-mer peptides
Description: The peptides overlapped by a single amino acid and were printed in duplicate, framed by HA control peptides.
For epitope mapping, a custom 15-mer peptide microarray was designed and printed. […] The peptides overlapped by a single amino acid and were printed in duplicate, framed by HA control peptides. […] A duplicate array was probed with polyclonal, monospecific anti-PfGARP-A mouse antibodies (red).

B1: recombinant monoclonal anti-PfGARP (rec mAb7899) (antibody, V domains shown)
VH: EAQLQQSGTELVKPGASVKLSCTASGFYIKDTYIHWVRQRPVQGLEWIGRIDPANYDTKYDPKFQGKATITADTSSNTAYLQLINLTPEDTVVYYCTSFGGTKLRFAYWGQGTLVTVSA
VL: NIMMTQSPSSLAVSAGEEVTMSCKSSQSVLYSSNQRNYLAWFQQKSGQSPKLLIYWASTRESGVPDRFTGSGSGTDFTLTISNLQVEDLAVYYCLQHFSSWTFGGGTKLEIK
notes: also called recombinant mAb7899; recombinant mAb
- binding result: binds

Source: patent US20240141028A1 (RHODE ISLAND HOSPITAL, published 2024)
